# Measurements published in patent US5763593.
# Target: TATA-binding protein (Saccharomyces cerevisiae (strain ATCC 204508 / S288c) (Baker's yeast)) (UniProt P13393)
substance,measurement,value
purified yeast NC2 (DRAP1/Dr1) with epitope-tagged (FLAG) NC2α/DRAP1 subunit,amount required for 50% inhibition of in vitro transcription by RNA polymerase II holoenzyme,0.5 pmol
